Measurements as given in patent US20230322953A1 (HARBOUR BIOMED SHANGHAI, published 2023).
Where two headings read alike, the source gives them in different places.

Experiments:
[1] = biological target: T1, human BCMA on NCI-H929 cells (ATCC, CRL-9068) (human, UniProt Q02223 1-184); assay: cell-based or functional assay
T1 sequence (looked up): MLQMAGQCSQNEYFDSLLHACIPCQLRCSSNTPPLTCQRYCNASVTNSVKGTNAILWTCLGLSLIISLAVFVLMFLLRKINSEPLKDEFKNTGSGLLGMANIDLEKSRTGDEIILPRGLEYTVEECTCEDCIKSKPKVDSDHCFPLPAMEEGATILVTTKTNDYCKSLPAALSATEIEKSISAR

[2] = biological target: T1, human BCMA on NCI-H929 cells (ATCC, …); assay: cell-based or functional assay; remark: listed apart in the source
[3] = biological target: T1, human BCMA on NCI-H929 cells (ATCC, …); assay: cell-based or functional assay; remark: listed apart in the source
[4] = biological target: T2, cynomolgus monkey CD3 (TCR/CD3 complex) on cynomolgus monkey T cells (cynomolgus monkey); assay: flow cytometry (FACS) on cynomolgus monkey T cells
T2 construct: whole, on cells

[5] = biological target: T3, human CD3 (TCR/CD3 complex) on human T cells (human, UniProt P07766 23-207); assay: flow cytometry (FACS) on human T cells, Experiment 3
T3 construct: whole, on cells

[6] = biological target: T4, cynomolgus monkey BCMA (ACRO Biosystems, #BCA-C82F4) (cynomolgus monkey, UniProt A0A2K5UD97 1-53); assay: BLI (Octet Red96e), cyBCMA.Fc on SA sensor, 1:1 global fitting
T4 construct: Bought protein; also called cyBCMA.Fc

[7] = biological target: T4, cynomolgus monkey BCMA (ACRO …); assay: BLI; KD for cynomolgus monkey BCMA divided by KD for human BCMA
[8] = biological target: T5, biotinylated human BCMA-Fc, Avitag recombinant protein (ACRO Biosystems, #BC7-H82F0) (human, UniProt Q02223 1-54, biotinylated (Avitag)); assay: BLI (Octet Red96e), biotinylated BCMA-Fc on SA sensor, 1:1 global fitting;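 also: Anti-BCMA antibodies analysed as binding partners of the captured BCMA antigen, with reference signals removed by double referencing before kinetic fitting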
T5 construct: extracellular domain; Bought protein; also called huBCMA.Fc; recombinant human BCMA-ECD-Fc
T5 sequence (looked up): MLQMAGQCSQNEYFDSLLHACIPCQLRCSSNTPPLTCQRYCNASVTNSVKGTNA

[9] = biological target: T1, human BCMA on NCI-H929 cells (ATCC, …); assay: cell-based or functional assay; remark: listed apart in the source

T3 sequence (P07766 23-207, one chain of several): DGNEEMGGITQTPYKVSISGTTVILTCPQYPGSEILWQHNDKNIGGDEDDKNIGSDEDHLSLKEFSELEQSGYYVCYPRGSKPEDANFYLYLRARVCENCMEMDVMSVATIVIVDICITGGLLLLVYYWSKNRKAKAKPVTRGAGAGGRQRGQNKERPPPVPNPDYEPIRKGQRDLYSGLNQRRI
T2 sequence (Q95LI5 22-198, one chain of several): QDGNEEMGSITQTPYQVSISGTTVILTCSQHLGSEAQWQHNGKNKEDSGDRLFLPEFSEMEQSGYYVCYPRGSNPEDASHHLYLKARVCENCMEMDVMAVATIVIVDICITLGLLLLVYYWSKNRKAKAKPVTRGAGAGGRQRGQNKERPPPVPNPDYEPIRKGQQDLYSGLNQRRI
T4 sequence (A0A2K5UD97 entry or part of it): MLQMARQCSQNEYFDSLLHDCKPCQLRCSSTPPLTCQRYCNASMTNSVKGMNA

B1: PR002309 (bispecific antibody, human IgG1, lambda, L234A L235A)
light: QAVVTQEPSLTVSPGGTVTLTCRSSTGAVTTSNYANWVQQKPGQAPRGLIGGTNKRAPWTPARFSGSLLGDKAALTLLGAQPEDEAEYFCALWYSNLWVFGGGTKLTVLGQPKAAPSVTLFPPSSEELQANKATLVCLISDFYPGAVTVAWKADSSPVKAGVETTTPSKQSNNKYAASSYLSLTPEQWKSHRSYSCQVTHEGSTVEKTVAPTECS
heavy: EVQLLESGGGLVQPGGSLRLSCAASGFTFSTYAMNWVRQAPGKGLEWVSRIRSKYNNYATYYADSVKDRFTISRDDSKSTLYLQMNSLRAEDTAVYYCVRHGNFGNSYVSWFAYWGQGTLVTVSSASTKGPSVFPLAPSSKSTSGGTAALGCLVKDYFPEPVTVSWNSGALTSGVHTFPAVLQSSGLYSLSSVVTVPSSSLGTQTYICNVNHKPSNTKVDKKVEPKSCDKTHTCPPCPAPEAAGGPSVFLFPPKPKDTLMISRTPEVTCVVVDVSHEDPEVKFNWYVDGVEVHNAKTKPREEQYNSTYRVVSVLTVLHQDWLNGKEYKCKVSNKALGAPIEKTISKAKGQPREPQVYTLPPCREEMTKNQVSLWCLVKGFYPSDIAVEWESNGQPENNYKTTPPVLDSDGSFFLYSKLTVDKSRWQQGNVFSCSVMHEALHNHYTQKSLSLSPGK
chain: EVQLVETGGGLIQPGGSLRLSCAASGFTVSDNYMTWVRQAPGKGLEWVSVIFSGGNTYYADSVKGRFTISRDNAKNTLYLQMNSLRAEDTALYYCARRNYDDTRGTDVFDIWGQGTMVTVSSRTGGGGSGGGGSGGGGSKLEVQLVETGGGLIQPGGSLRLSCAASGFTVSDNYMTWVRQAPGKGLEWVSVIFSGGNTYYADSVKGRFTISRDNAKNTLYLQMNSLRAEDTALYYCARRNYDDTRGTDVFDIWGQGTMVTVSSASEPKSSDKTHTCPPCPAPEAAGGPSVFLFPPKPKDTLMISRTPEVTCVVVDVSHEDPEVKFNWYVDGVEVHNAKTKPREEQYNSTYRVVSVLTVLHQDWLNGKEYKCKVSNKALGAPIEKTISKAKGQPREPQVCTLPPSREEMTKNQVSLSCAVKGFYPSDIAVEWESNGQPENNYKTTPPVLDSDGSFFLVSKLTVDKSRWQQGNVFSCSVMHEALHNHYTQKSLSLSPGK
IFN-γ release, EC50 [1]: 0.0194 nM | IFN-γ release, Maximum [1]: 1950 pg/mL | IL-2 release, EC50 [1]: 0.0375 nM | IL-2 release, Maximum [1]: 222 pg/mL | IL-6 release, EC50 [1]: 0.195 nM | IL-6 release, Maximum [1]: 209 pg/mL | IL-10 release, EC50 [1]: 0.0298 nM | IL-10 release, Maximum [1]: 1050 pg/mL | NCI-H929 killing, EC50 [1]: 0.00772 nM | NCI-H929 killing, Maximum killing rate % [1]: 69.5% | TNF-α release, EC50 [1]: 0.0445 nM | TNF-α release, Maximum [1]: 1300 pg/mL | Killing EC50 (nM), T cell + NCI-H929, + 10 ng/mL sAPRIL [2]: 0.000538 nM | Killing EC50 (nM), T cell + NCI-H929, + 10 ng/mL sBAFF [2]: 0.000447 nM | Killing EC50 (nM), T cell + NCI-H929, + 100 ng/mL sAPRIL [2]: 0.000991 nM | Killing EC50 (nM), T cell + NCI-H929, + 100 ng/mL sBAFF [2]: 0.000474 nM | Killing EC50 (nM), T cell + NCI-H929, no soluble ligand [2]: 0.000439 nM | Killing EC50 (nM), T cell + NCI-H929, + 62.5 ng/mL sBCMA [3]: 0.00296 nM | Killing EC50 (nM), T cell + NCI-H929, + 125 ng/mL sBCMA [3]: 0.00347 nM | Killing EC50 (nM), T cell + NCI-H929, + 250 ng/mL sBCMA [3]: 0.005 nM | Killing EC50 (nM), T cell + NCI-H929, + 500 ng/ml sBCMA [3]: 0.0088 nM | Killing EC50 (nM), T cell + NCI-H929, no sBCMA [3]: 0.000393 nM | Maximum MFI [4]: 11700 MFI | Maximum MFI [5]: 317000 MFI | Kd [6]: 0.141 nM | koff [6]: 0.000116 s⁻¹ | kon [6]: 823000 M⁻¹ s⁻¹ | KD ratio (cy BCMA/hu BCMA) [7]: 3.16 | Kd [8]: 0.0448 nM | koff [8]: 1.89e-05 s⁻¹ | kon [8]: 422000 M⁻¹ s⁻¹

B2: PR002895 (bispecific antibody, human IgG1, lambda, L234A L235A)
light: B1 light
heavy: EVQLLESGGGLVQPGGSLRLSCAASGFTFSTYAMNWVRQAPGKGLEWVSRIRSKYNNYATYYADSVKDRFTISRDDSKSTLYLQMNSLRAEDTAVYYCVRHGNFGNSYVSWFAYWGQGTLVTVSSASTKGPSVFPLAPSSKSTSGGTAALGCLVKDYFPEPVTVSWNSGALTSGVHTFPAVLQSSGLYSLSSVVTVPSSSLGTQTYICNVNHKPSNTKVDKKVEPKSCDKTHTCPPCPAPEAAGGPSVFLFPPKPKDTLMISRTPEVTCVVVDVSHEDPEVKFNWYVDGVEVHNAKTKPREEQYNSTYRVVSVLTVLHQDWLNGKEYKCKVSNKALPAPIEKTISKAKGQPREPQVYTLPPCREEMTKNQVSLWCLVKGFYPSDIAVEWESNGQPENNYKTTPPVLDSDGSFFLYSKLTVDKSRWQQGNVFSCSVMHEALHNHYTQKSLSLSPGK
chain: EVQLVETGGGLIQPGGSLRLSCAASGFTVSDNYMTWVRQAPGKGLEWVSVIFSGGNTYYADSVKGRFTISRDNAKNTLYLQMNSLRAEDTALYYCARRNYDDTRGTDVFDIWGQGTMVTVSSGGGGSGGGGSGGGGSEVQLVETGGGLIQPGGSLRLSCAASGFTVSDNYMTWVRQAPGKGLEWVSVIFSGGNTYYADSVKGRFTISRDNAKNTLYLQMNSLRAEDTALYYCARRNYDDTRGTDVFDIWGQGTMVTVSSASEPKSSDKTHTCPPCPAPEAAGGPSVFLFPPKPKDTLMISRTPEVTCVVVDVSHEDPEVKFNWYVDGVEVHNAKTKPREEQYNSTYRVVSVLTVLHQDWLNGKEYKCKVSNKALPAPIEKTISKAKGQPREPQVCTLPPSREEMTKNQVSLSCAVKGFYPSDIAVEWESNGQPENNYKTTPPVLDSDGSFFLVSKLTVDKSRWQQGNVFSCSVMHEALHNHYTQKSLSLSPGK
IFN-γ release, EC50 [9]: 0.0223 nM | IFN-γ release, Maximum [9]: 1440 pg/mL | IL-2 release, EC50 [9]: 0.0211 nM | IL-2 release, Maximum [9]: 100 pg/mL | IL-6 release, EC50 [9]: 0.00839 nM | IL-6 release, Maximum [9]: 118 pg/mL | IL-10 release, EC50 [9]: 0.0134 nM | IL-10 release, Maximum [9]: 240 pg/mL | NCI-H929 killing, EC50 [9]: 0.00293 nM | NCI-H929 killing, Maximum killing rate % [9]: 57.9% | TNF-α release, EC50 [9]: 0.00818 nM | TNF-α release, Maximum [9]: 1280 pg/mL | Maximum MFI [4]: 18600 MFI | Maximum MFI [5]: 322000 MFI | Kd [6]: 0.272 nM | koff [6]: 0.000242 s⁻¹ | kon [6]: 890000 M⁻¹ s⁻¹ | KD ratio (cy BCMA/hu BCMA) [7]: 1.38 | Kd [8]: 0.197 nM | koff [8]: 8.11e-05 s⁻¹ | kon [8]: 412000 M⁻¹ s⁻¹

B3: PR003178 (bispecific antibody, human IgG1, lambda, L234A L235A)
light: B1 light
heavy: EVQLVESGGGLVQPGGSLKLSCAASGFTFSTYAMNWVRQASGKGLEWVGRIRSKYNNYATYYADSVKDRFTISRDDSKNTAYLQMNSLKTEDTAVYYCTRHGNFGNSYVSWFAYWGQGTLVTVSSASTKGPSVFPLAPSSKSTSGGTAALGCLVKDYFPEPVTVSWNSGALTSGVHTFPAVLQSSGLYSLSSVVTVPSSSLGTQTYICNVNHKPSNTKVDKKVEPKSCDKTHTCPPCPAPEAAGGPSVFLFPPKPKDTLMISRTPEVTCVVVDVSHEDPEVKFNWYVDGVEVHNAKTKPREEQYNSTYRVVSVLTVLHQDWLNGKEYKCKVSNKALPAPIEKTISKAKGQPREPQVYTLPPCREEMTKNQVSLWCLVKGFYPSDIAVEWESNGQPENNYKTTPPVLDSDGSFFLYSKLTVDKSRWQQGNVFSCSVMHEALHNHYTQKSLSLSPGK
chain: B2 chain
IFN-γ release, EC50 [9]: 0.0595 nM | IFN-γ release, Maximum [9]: 1210 pg/mL | IL-2 release, EC50 [9]: 0.175 nM | IL-2 release, Maximum [9]: 101 pg/mL | IL-6 release, EC50 [9]: 0.0448 nM | IL-6 release, Maximum [9]: 89.7 pg/mL | IL-10 release, EC50 [9]: 0.104 nM | IL-10 release, Maximum [9]: 322 pg/mL | NCI-H929 killing, EC50 [9]: 0.0102 nM | NCI-H929 killing, Maximum killing rate % [9]: 56.8% | TNF-α release, EC50 [9]: 0.0281 nM | TNF-α release, Maximum [9]: 1330 pg/mL | Killing EC50 (nM), PBMC + NCI-H929, + 10 ng/mL sBAFF [2]: 0.005 nM | Killing EC50 (nM), PBMC + NCI-H929, + 10 ng/ml sAPRIL [2]: 0.009 nM | Killing EC50 (nM), PBMC + NCI-H929, + 100 ng/mL sAPRIL [2]: 0.011 nM | Killing EC50 (nM), PBMC + NCI-H929, + 100 ng/mL sBAFF [2]: 0.008 nM | Killing EC50 (nM), PBMC + NCI-H929, no soluble ligand [2]: 0.007 nM | Killing EC50 (nM), PBMC + NCI-H929, + 62.5 ng/ml sBCMA [3]: 0.009 nM | Killing EC50 (nM), PBMC + NCI-H929, + 125 ng/mL sBCMA [3]: 0.014 nM | Killing EC50 (nM), PBMC + NCI-H929, + 250 ng/ml sBCMA [3]: 0.065 nM | Killing EC50 (nM), PBMC + NCI-H929, + 500 ng/ml sBCMA [3]: 0.12 nM | Killing EC50 (nM), PBMC + NCI-H929, no sBCMA [3]: 0.005 nM | Maximum MFI [4]: 10700 MFI | Maximum MFI [5]: 23900 MFI | Kd [6]: 0.319 nM | koff [6]: 0.000262 s⁻¹ | kon [6]: 822000 M⁻¹ s⁻¹ | KD ratio (cy BCMA/hu BCMA) [7]: 1.35 | Kd [8]: 0.236 nM | koff [8]: 0.000117 s⁻¹ | kon [8]: 494000 M⁻¹ s⁻¹

B4: PR002953 (bispecific antibody, human IgG1, lambda, L234A L235A)
light: B1 light
heavy: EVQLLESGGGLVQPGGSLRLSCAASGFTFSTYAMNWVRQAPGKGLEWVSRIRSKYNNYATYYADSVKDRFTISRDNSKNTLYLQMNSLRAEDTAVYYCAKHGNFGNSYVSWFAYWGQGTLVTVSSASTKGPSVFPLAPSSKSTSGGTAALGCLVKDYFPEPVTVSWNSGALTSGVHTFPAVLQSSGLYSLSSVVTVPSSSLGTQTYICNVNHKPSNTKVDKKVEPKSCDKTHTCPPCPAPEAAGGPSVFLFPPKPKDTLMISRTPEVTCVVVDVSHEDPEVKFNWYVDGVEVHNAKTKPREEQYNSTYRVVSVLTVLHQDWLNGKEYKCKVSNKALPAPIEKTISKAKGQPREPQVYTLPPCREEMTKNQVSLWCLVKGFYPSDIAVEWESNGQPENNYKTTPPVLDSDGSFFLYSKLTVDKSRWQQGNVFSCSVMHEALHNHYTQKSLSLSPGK
chain: B2 chain
IFN-γ release, EC50 [9]: 0.212 nM | IFN-γ release, Maximum [9]: 640 pg/mL | IL-2 release, EC50 [9]: 0.795 nM | IL-2 release, Maximum [9]: 23.6 pg/mL | IL-6 release, EC50 [9]: 0.128 nM | IL-6 release, Maximum [9]: 68.5 pg/mL | IL-10 release, EC50 [9]: 0.208 nM | IL-10 release, Maximum [9]: 129 pg/mL | NCI-H929 killing, EC50 [9]: 0.047 nM | NCI-H929 killing, Maximum killing rate % [9]: 57.5% | TNF-α release, EC50 [9]: 0.197 nM | TNF-α release, Maximum [9]: 894 pg/mL | Maximum MFI [4]: 9710 MFI | Maximum MFI [5]: 17000 MFI | Kd [6]: 0.195 nM | koff [6]: 7.12e-05 s⁻¹ | kon [6]: 365000 M⁻¹ s⁻¹ | KD ratio (cy BCMA/hu BCMA) [7]: 0.87 | Kd [8]: 0.225 nM | koff [8]: 0.000107 s⁻¹ | kon [8]: 474000 M⁻¹ s⁻¹
